Legend:
[1] = target: type IF CRISPR RNA guided surveillance complex (Csy) (UniProt Q02MM2); test: ITC; AcrIF9 or AcrIF2 binding to the Csy complex; conditions not told in the text shown (Supplemental Figure S8)
[2] = target: type IF CRISPR RNA guided surveillance complex (Csy) (UniProt Q02MM2); test: differential scanning fluorimetry; purified Csy (0.323 uM) or AcrIF2-bound Csy (0.475 uM) in 100 mM citrate phosphate buffer pH 7.5 with SYPRO orange; 25°C to 95°C at 1°C/min; maximum intensity of each curve compared

AcrIF2 (natural protein), sequence (Q6TM72 whole entry): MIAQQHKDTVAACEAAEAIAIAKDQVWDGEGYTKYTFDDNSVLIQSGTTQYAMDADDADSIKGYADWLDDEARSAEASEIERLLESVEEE

AcrIF2 (natural protein)
dH [1]: < 0
increase in temperature at the maximum DSF intensity compared to unbound Csy [2]: 3 °C
